The target of experiment [1] is human c-Met receptor (human, UniProt P08581 25-1390). In words: cell-based or functional assay.
Experiment [2] has as its target C-Met-Rluc (R. reniformis, UniProt P08581 25-1390). In words: cell-based or functional assay.

human c-Met receptor, sequence (P08581 25-1390): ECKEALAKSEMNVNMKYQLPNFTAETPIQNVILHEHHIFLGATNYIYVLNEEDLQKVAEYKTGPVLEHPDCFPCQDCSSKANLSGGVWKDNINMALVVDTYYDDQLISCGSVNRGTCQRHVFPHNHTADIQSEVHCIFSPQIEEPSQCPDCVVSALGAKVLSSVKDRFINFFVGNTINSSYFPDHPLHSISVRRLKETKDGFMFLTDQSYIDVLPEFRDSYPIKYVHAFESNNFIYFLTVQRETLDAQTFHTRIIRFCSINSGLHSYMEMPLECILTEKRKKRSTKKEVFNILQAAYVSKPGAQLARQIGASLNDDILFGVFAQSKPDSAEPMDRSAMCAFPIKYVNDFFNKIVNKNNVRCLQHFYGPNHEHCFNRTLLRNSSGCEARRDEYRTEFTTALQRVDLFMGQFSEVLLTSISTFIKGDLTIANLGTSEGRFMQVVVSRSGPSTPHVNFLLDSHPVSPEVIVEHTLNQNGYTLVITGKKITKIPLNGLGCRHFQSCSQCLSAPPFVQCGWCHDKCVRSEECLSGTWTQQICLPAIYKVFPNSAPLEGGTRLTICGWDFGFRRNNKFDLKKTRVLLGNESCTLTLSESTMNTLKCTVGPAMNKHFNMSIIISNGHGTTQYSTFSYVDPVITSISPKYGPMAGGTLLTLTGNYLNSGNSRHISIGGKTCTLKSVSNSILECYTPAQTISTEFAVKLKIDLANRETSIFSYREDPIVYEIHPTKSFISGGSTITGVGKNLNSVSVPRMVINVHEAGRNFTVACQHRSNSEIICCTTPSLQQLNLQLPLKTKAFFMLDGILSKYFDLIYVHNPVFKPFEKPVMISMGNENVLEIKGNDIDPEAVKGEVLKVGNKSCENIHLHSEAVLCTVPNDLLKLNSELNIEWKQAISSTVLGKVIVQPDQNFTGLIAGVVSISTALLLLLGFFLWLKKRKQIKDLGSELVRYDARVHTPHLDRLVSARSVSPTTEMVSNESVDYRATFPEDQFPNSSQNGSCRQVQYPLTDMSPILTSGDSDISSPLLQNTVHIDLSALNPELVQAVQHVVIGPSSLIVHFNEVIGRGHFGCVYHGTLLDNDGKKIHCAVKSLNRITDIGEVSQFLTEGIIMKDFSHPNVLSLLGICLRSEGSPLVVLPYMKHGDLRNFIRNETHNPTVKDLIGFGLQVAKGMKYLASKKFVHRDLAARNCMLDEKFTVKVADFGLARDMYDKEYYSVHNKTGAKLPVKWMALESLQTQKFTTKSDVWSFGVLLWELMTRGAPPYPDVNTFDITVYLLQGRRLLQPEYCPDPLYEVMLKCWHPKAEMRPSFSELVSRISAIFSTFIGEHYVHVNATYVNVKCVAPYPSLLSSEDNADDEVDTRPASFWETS
C-Met-Rluc, sequence (P08581 25-1390): as above

B1: [224G11] [Hz1] (antibody, V domains shown)
VH: QVQLVQSGAEVKKPGASVKVSCKASGYIFTAYTMHWVRQAPGQGLEWMGWIKPNNGLANYAQKFQGRVTMTRDTSISTAYMELSRLRSDDTAVYYCARSEITTEFDYWGQGTLVTVSS
VL: DIVLTQSPDSLAVSLGERATINCKSSESVDSYANSFMHWYQQKPGQPPKLLIYRASTRESGVPDRFSGSGSRTDFTLTISSLQAEDVAVYYCQQSKEDPLTFGGGTKVEIKR
Regarding B1, the “inhibition of HGF-induced proliferation of NCI-H441 cells ([3H]thymidine), FIG. 14A” value (shortened to “inhibition … FIG. 14A”) in experiment [1] is roughly 46%.

B2: [224G11] [Hz3] (antibody, V domains shown)
VH: QVQLVQSGAEVKKPGASVKVSCKASGYIFTAYTMHWVRQAPGQGLEWMGWIKPNNGLANYAQKFQGRVTMTRDTSISTAYMELSRLRSDDTAVYYCARSEITTEFDYWGQGTLVTVSS
VL: DIVMTQSPDSLAVSLGERATINCKSSESVDSYANSFLHWYQQKPGQPPKLLIYRASTRESGVPDRFSGSGSGTDFTLTISSLQAEDVAVYYCQQSKEDPLTFGGGTKVEIKR
Consider B2, for which, in experiment [1], the “inhibition … FIG. 14A” value is roughly 35%.

B3: [224G11] [Hz2] (antibody, V domains shown)
VH: QVQLVQSGAEVKKPGASVKVSCKASGYIFTAYTMHWVRQAPGQGLEWMGWIKPNNGLANYAQKFQGRVTMTRDTSISTAYMELSRLRSDDTAVYYCARSEITTEFDYWGQGTLVTVSS
VL: DIVMTQSPDSLAVSLGERATINCKSSESVDSYANSFMHWYQQKPGQPPKLLIYRASTRESGVPDRFSGSGSGTDFTLTISSLQAEDVAVYYCQQSKEDPLTFGGGTKVEIKR
On to B3, for which the “inhibition … FIG. 14A” value in experiment [1] is roughly 30%.

B4: [224G11] [TH7 Hz1] (antibody, human IgG1, V domains shown)
VH: QVQLVQSGAEVKKPGASVKVSCKASGYIFTAYTMHWVRQAPGQGLEWMGWIKPNNGLANYAQKFQGRVTMTRDTSISTAYMELSRLRSDDTAVYYCARSEITTEFDYWGQGTLVTVSS
VL: DIVLTQSPDSLAVSLGERATINCKSSESVDSYANSFMHWYQQKPGQPPKLLIYRASTRESGVPDRFSGSGSRTDFTLTISSLQAEDVAVYYCQQSKEDPLTFGGGTKVEIKR
Take B4: in experiment [1], the “inhibition of HGF-induced proliferation of NCI-H441 cells ([3H]thymidine), FIG. 15” value (“inhibition … FIG. 15” for short) stood at 67%. In experiment [2], the “inhibition of HGF induced BRET signal, c-Met activation model” value (shortened to “inhibition … c-Met activation model”) is 59.9% and the “inhibition of HGF induced BRET signal, c-Met dimerization model” value (shortened to “inhibition … c-Met dimerization model”) stood at 52.2%.

B5: [224G11] [TH7 Hz3] (antibody, human IgG1, V domains shown)
VH: QVQLVQSGAEVKKPGASVKVSCKASGYIFTAYTMHWVRQAPGQGLEWMGWIKPNNGLANYAQKFQGRVTMTRDTSISTAYMELSRLRSDDTAVYYCARSEITTEFDYWGQGTLVTVSS
VL: DIVMTQSPDSLAVSLGERATINCKSSESVDSYANSFLHWYQQKPGQPPKLLIYRASTRESGVPDRFSGSGSGTDFTLTISSLQAEDVAVYYCQQSKEDPLTFGGGTKVEIKR
As for B5, in experiment [1], the “inhibition … FIG. 15” value amounted to 76%. Besides, in experiment [2], the “inhibition … c-Met activation model” value was determined as 57.9% and the “inhibition … c-Met dimerization model” value was determined as 49.4%.

B6: [224G11] [TH7 Hz2] (antibody, human IgG1, V domains shown)
VH: QVQLVQSGAEVKKPGASVKVSCKASGYIFTAYTMHWVRQAPGQGLEWMGWIKPNNGLANYAQKFQGRVTMTRDTSISTAYMELSRLRSDDTAVYYCARSEITTEFDYWGQGTLVTVSS
VL: DIVMTQSPDSLAVSLGERATINCKSSESVDSYANSFMHWYQQKPGQPPKLLIYRASTRESGVPDRFSGSGSGTDFTLTISSLQAEDVAVYYCQQSKEDPLTFGGGTKVEIKR
Consider B6, for which, in experiment [2], the “inhibition … c-Met activation model” value was determined as 41.8% and the “inhibition … c-Met dimerization model” value worked out at 35.8%.

B7: murine 224G11 Mab (antibody, V domains shown)
VH: EVQLQQSGPELVKPGASVKISCKTSGYIFTAYTMHWVRQSLGESLDWIGGIKPNNGLANYNQKFKGKATLTVDKSSSTAYMDLRSLTSEDSAVYYCARSEITTEFDYWGQGTALTVSS
VL: DIVLTQSPASLAVSLGQRATISCRASESVDSYANSFMHWYQQKPGQPPKLLIYRASNLESGIPARFSGSGSRTDFTLTINPVEADDVATYYCQQSKEDPLTFGSGTKLEMKR
For B7, in experiment [1], the “inhibition … FIG. 14A” value is 66%; the “inhibition of HGF-induced proliferation of NCI-H441 cells ([3H]thymidine), FIG. 14B” value (from here on “inhibition … FIG. 14B”) came to 57%; the “inhibition … FIG. 15” value was 74%. Moreover, in experiment [2], the “inhibition … c-Met activation model” value came out at 56.4% and the “inhibition … c-Met dimerization model” value is 59.4%.

B8: [224G11] [MMCH chim] (antibody, V domains shown)
VH: EVQLQQSGPELVKPGASVKISCKTSGYIFTAYTMHWVRQSLGESLDWIGGIKPNNGLANYNQKFKGKATLTVDKSSSTAYMDLRSLTSEDSAVYYCARSEITTEFDYWGQGTALTVSS
VL: DIVLTQSPASLAVSLGQRATISCRASESVDSYANSFMHWYQQKPGQPPKLLIYRASNLESGIPARFSGSGSRTDFTLTINPVEADDVATYYCQQSKEDPLTFGSGTKLEMKR
For the molecule B8, in experiment [1], the “inhibition … FIG. 14B” value came out at 84%. For the same molecule, in experiment [2], the “BRET signal with Mab alone, c-Met activation model” value (“BRET signal with Mab alone” below) was -2%; the “inhibition … c-Met activation model” value is 53.2%; the “inhibition … c-Met dimerization model” value is 52.5%.

B9: [224G11] [MH chim] (antibody, V domains shown)
VH: EVQLQQSGPELVKPGASVKISCKTSGYIFTAYTMHWVRQSLGESLDWIGGIKPNNGLANYNQKFKGKATLTVDKSSSTAYMDLRSLTSEDSAVYYCARSEITTEFDYWGQGTALTVSS
VL: DIVLTQSPASLAVSLGQRATISCRASESVDSYANSFMHWYQQKPGQPPKLLIYRASNLESGIPARFSGSGSRTDFTLTINPVEADDVATYYCQQSKEDPLTFGSGTKLEMKR
As for B9, in experiment [1], the “inhibition … FIG. 14B” value turned out to be 79%. In addition, in experiment [2], the “BRET signal with Mab alone” value was 5.1%; the “inhibition … c-Met activation model” value stood at 59.7%; the “inhibition … c-Met dimerization model” value is 61.8%.

B10: [224G11] [MUP9H chim] (antibody, V domains shown)
VH: EVQLQQSGPELVKPGASVKISCKTSGYIFTAYTMHWVRQSLGESLDWIGGIKPNNGLANYNQKFKGKATLTVDKSSSTAYMDLRSLTSEDSAVYYCARSEITTEFDYWGQGTALTVSS
VL: DIVLTQSPASLAVSLGQRATISCRASESVDSYANSFMHWYQQKPGQPPKLLIYRASNLESGIPARFSGSGSRTDFTLTINPVEADDVATYYCQQSKEDPLTFGSGTKLEMKR
Turning to B10, the “inhibition … FIG. 14B” value in experiment [1] worked out at 78%. Besides, in experiment [2], the “BRET signal with Mab alone” value was 7.6%; the “inhibition … c-Met activation model” value stood at 64.4%; the “inhibition … c-Met dimerization model” value was 64.4%.

B11: [224G11]chim (antibody, human IgG1, V domains shown)
VH: EVQLQQSGPELVKPGASVKISCKTSGYIFTAYTMHWVRQSLGESLDWIGGIKPNNGLANYNQKFKGKATLTVDKSSSTAYMDLRSLTSEDSAVYYCARSEITTEFDYWGQGTALTVSS
VL: DIVLTQSPASLAVSLGQRATISCRASESVDSYANSFMHWYQQKPGQPPKLLIYRASNLESGIPARFSGSGSRTDFTLTINPVEADDVATYYCQQSKEDPLTFGSGTKLEMKR
Take B11: in experiment [1], the “inhibition … FIG. 14A” value is 19% and the “inhibition … FIG. 15” value stood at 33%. Besides, in experiment [2], the “inhibition … c-Met activation model” value was found to be 34.5% and the “inhibition … c-Met dimerization model” value worked out at 28.9%.

B12: [224G11] [TH7 chim] (antibody, human IgG1)
heavy: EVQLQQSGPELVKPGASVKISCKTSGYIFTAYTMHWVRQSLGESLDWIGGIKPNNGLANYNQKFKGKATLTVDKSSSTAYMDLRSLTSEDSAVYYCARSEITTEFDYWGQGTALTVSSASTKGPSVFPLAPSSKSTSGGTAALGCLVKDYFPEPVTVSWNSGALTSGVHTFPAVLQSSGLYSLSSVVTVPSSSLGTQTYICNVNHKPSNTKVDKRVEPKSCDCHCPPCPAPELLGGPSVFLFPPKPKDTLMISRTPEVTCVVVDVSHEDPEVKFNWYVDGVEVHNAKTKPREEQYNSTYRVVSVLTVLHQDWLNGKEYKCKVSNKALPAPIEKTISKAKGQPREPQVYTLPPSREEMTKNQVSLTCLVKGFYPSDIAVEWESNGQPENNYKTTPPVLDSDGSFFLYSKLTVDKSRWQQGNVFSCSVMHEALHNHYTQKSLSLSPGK
light: DIVLTQSPASLAVSLGQRATISCRASESVDSYANSFMHWYQQKPGQPPKLLIYRASNLESGIPARFSGSGSRTDFTLTINPVEADDVATYYCQQSKEDPLTFGSGTKLEMKRTVAAPSVFIFPPSDEQLKSGTASVVCLLNNFYPREAKVQWKVDNALQSGNSQESVTEQDSKDSTYSLSSTLTLSKADYEKHKVYACEVTHQGLSSPVTKSFNRGEC
As for B12, in experiment [1], the “inhibition … FIG. 14B” value came out at 93% and the “inhibition … FIG. 15” value stood at 81%. Besides, in experiment [2], the “BRET signal with Mab alone” value was -6.9%; the “inhibition … c-Met activation model” value was 73.8%; the “inhibition … c-Met dimerization model” value was found to be 64.4%.

B13: [224G11] [IgG2 chim] (antibody)
heavy: EVQLQQSGPELVKPGASVKISCKTSGYIFTAYTMHWVRQSLGESLDWIGGIKPNNGLANYNQKFKGKATLTVDKSSSTAYMDLRSLTSEDSAVYYCARSEITTEFDYWGQGTALTVSSASTKGPSVFPLAPCSRSTSESTAALGCLVKDYFPEPVTVSWNSGALTSGVHTFPAVLQSSGLYSLSSVVTVPSSNFGTQTYTCNVDHKPSNTKVDKTVERKCCVECPPCPAPPVAGPSVFLFPPKPKDTLMISRTPEVTCVVVDVSHEDPEVQFNWYVDGVEVHNAKTKPREEQFNSTFRVVSVLTVVHQDWLNGKEYKCKVSNKGLPAPIEKTISKTKGQPREPQVYTLPPSREEMTKNQVSLTCLVKGFYPSDIAVEWESNGQPENNYKTTPPMLDSDGSFFLYSKLTVDKSRWQQGNVFSCSVMHEALHNHYTQKSLSLSPG
light: DIVLTQSPASLAVSLGQRATISCRASESVDSYANSFMHWYQQKPGQPPKLLIYRASNLESGIPARFSGSGSRTDFTLTINPVEADDVATYYCQQSKEDPLTFGSGTKLEMKRTVAAPSVFIFPPSDEQLKSGTASVVCLLNNFYPREAKVQWKVDNALQSGNSQESVTEQDSKDSTYSLSSTLTLSKADYEKHKVYACEVTHQGLSSPVTKSFNRGEC
Turning to B13, the “inhibition … c-Met dimerization model” value in experiment [2] was 62.4%.

The values above are taken from patent US20110239316A1 (PIERRE FABRE MEDICAMENT, published 2011).
